Measured values from US12077566B2, “Mutants of recombinant immunoregulatory protein of Ganoderma lucidum and applications thereof” (priority 2017, dated 2024).

Columns and labels:
[1] = tested on: human colon cancer SW480 cells; assay: Transplantation tumor model of human colon cancer SW480 cells; type: in vivo, BALB/c nude mice; conditions: after administration for 28 days
Experimental: The RPMI1640 medium containing 10% fetal bovine serum is selected for the human colon cancer SW480 cells, and then is placed in the CO2 constant-temperature incubator at 37° C. for culturing. The SW480 cells at the logarithmic phase are digested by pancreatin and thereafter washed with serum-free RPMI1640 medium; 2×10^6 cells are inoculated below the back skin of the BALB/c nude mice; after the tumor blocks for observation are formed and have the diameter larger than 0.5 cm, the mice are divided into groups randomly; and the transplantation tumor model of human colon cancer SW480 cells are constructed in the BALB/c nude mice.

[2] = biological target: EGFR extracellular domain (Homo sapiens, UniProt P00533); assay: Affinity test by surface plasmon resonance (Biacore T200, CM5 chip); type: binding; conditions: for Affinity with the EGFR (in words): compared with rLZ-8
Experimental: The Biacore™ T200 equipment (a Surface Plasmon Resonance from GE Company) is selected. Through the surface plasma resonance technology, the affinity of the rLZ-8 and the mutants thereof to the EGFR extracellular domain is tested. The CM5 chip is adopted to serve as the affinity test chip.
The EGFR extracellular domain (with an amino acid sequence of 25-645) serves as the ligand for coupling; 1 mg EGFR freeze-dried powders are diluted with HEPES buffer solution to a concentration of 400 μg/mL and set aside. Three 1.5 mL EP tubes are prepared; 10 μL ligand are respectively added into the three tubes, then 90 μL 10 mM sodium acetate with different pH values of 4.5, 5.0 and 5.5 are respectively added into the tubes and are mixed completely and uniformly; and a final concentration of the ligand is 40 μg/mL. Moreover, 200 μL 50 mM sodium acetate is added into another 1.5 mL EP tube.
The ligand has a molecular weight of 70 kDa, the analyte (rLZ-8) has a molecular weight of 12.4 kDa. In theory, one rLZ-8 […] can bind with one EGFR, and thus the stoichiometric ratio Sm is equal to 1. Through the following equations, the coupling amount RL of the ligand is calculated.
Through the experimental experience, the optimal reagent coupling amount is set to be 3*RL, and the coupling amount is set to be 1700 RU. The EGFR extracellular domain is successively coupled on the CM5 chip.
In the affinity test, in order to eliminate the influence of different concentrations on the affinity, every of the rLZ-8 and the mutants thereof are tested with eight concentrations, wherein: seven concentrations are gradient concentrations, and the last one is the test reference concentration.

[3] = tested on: human lung cancer A549 cells; assay: Orthotopic transplantation tumor model of human lung cancer A549 cells; conditions: after administration for 28 days;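 also: test animals were NOG mice aged 6-8 weeks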
Experimental: The human lung cancer A549 cell strain is selected. The NOG Mice of 6-8 weeks old are selected.
The DMEM containing 10% fetal bovine serum is selected for the human lung cancer A549 cells, and then is placed in the CO2 constant-temperature incubator at 37° C. for culturing. The A549 cells at the logarithmic phase are digested by pancreatin and thereafter washed with serum-free DMEM; the living cell concentration is adjusted to 1×10^8 cells per milliliter; 20 μL cell suspension is taken and inoculated at the lung of the NOG mice; two weeks later, the orthotopic transplantation tumor model of A549 lung cancer cells is constructed in the NOG mice.

[4] = tested on: human liver cancer Hep G2 cells
Description: Two weeks later, the model mice are divided into groups randomly, and each group has 10 mice. The administration method is caudal vein injection, once a day, for consecutive 28 days (qd×28, i.v.). […] During the experiment, if the mouse dies, the dead mouse is weighted on the same day, and the tumor tissue is taken out to be weighted. For the living mouse after administration for 28 days, the mouse is killed, and then the tumor tissue is taken out to be weighted. The death time and death number of the mice in each group are recorded in detail; the survival conditions of the mice of the experimental groups and the control groups are analyzed, and the survival rate is calculated, wherein the survival rate is obtained through subtracting the death number of the mice from the total number of the mice, and then dividing the difference by the total number of the mice.

[5] = tested on: liver cancer, lung cancer, breast cancer and colon cancer; assay: Animal pharmacodynamic experiments of liver, lung, breast and colon cancer (summary statement); type: in vivo, mice; conditions: breast and colon cancer models together
[6] = tested on: human breast cancer MCF7 cells; assay: Orthotopic transplantation tumor model of human breast cancer MCF7 cells; type: in vivo, BALB/c nude mice; conditions: after administration for 28 days
Experimental: One day before the experiment, 0.5 mg of 17ß estradiol sustained release tablet is embedded below the neck skin of the BALB/c nude mice.

Hep G2 cytomembrane = assay: In vitro cellular activity: binding with Hep G2 cytomembrane and entering the cell; type: cell-based; conditions: 100 μg/mL
[7] = EGFR extracellular domain coupled on CM5 chip, analyte 4-256 nM

B1: rLZ-8 (K16A/S18A/K41A/D45A): alanine mutant of rLZ-8 at K16, S18, K41 and D45 (protein)
chain: MSDTALIFRLAWDVKALAFDYTPNWGRGNPNNFIDTVTFPAVLTAKAYTYRVAVSGRNLGVKPSYAVESDGSQKVNFLEYNSGYGIADTNTIQVFVVDPDTNNDFIIAQWN
For B1, the “Mice tumor weight after experiment” value [1] was 3.12 ± 0.54 g, the “Tumor inhibitory effect (in words)” value [1] was “nearly no tumor inhibitory effect” and the “Dissociation rate constant (koff)” value [2, 7] was 0.00423 s⁻¹. For the same molecule, the Ka [2, 7] was 139 M⁻¹ s⁻¹, the “Affinity with the EGFR (in words)” value [2] was “obviously decreased by 2-3 orders of magnitudes” and the “Affinity with the EGFR (in words)” value ([2]; listed as rLZ-8 (K16A/S18A/K41 A/D45A)) was “obviously decreased affinity”. For the same molecule, the “Mice survival rate after experiment” value [3] was 10%, the “Mice tumor weight after experiment” value [3] was 1.22 ± 0.83 g and the “Mice weight after experiment” value [3] was 17.6 ± 1.4 g. The “Tumor inhibitory effect (in words)” value [3] was “nearly no tumor inhibitory effect”, the “Tumor inhibitory effect (in words)” value ([4]; after administration for 28 days) was “nearly no tumor inhibitory effect” and the “Mice weight after experiment” value ([4]; mouse, in vivo) was 17.3 ± 1.5 g. The “Mice tumor weight after experiment” value ([4]; qd×28 i.v., rLZ-8 and mutants 0.5 mg/kg, sorafenib 50 mg/kg) was 1.62 ± 0.72 g, the “Survival rate of mice after experiment” value ([4]; qd×28 i.v., rLZ-8 and mutants 0.5 mg/kg, sorafenib 50 mg/kg, 10 mice per group) was 30% and the “Tumor inhibitory effect (in words)” value [5] was “nearly no tumor inhibitory effect”. For the same molecule, the “Mice tumor weight after experiment” value [6] was 1.02 ± 0.33 g, the “Tumor inhibitory effect (in words)” value [6] was “nearly no tumor inhibitory effect” and the “Binding with the Hep G2 cytomembrane and entering the cell (in words)” value (Hep G2 cytomembrane) was “little binding amount with the Hep G2 cytomembrane and nearly cannot be observed to enter the cell”.
